Experimental data published in US12571800B2, “Means and methods for treating angiogenesis-related diseases” (Heidelberg Biotech GmbH, priority 2011, dated 2026).

Assays:
fibronectin [1] = molecular target: T1, fibronectin (Homo sapiens, UniProt P02751); experiment: Elisa, binding to fibronectin; details: proteins coated at 10 μg/ml; fibronectin as ligand at the same concentration
Protocol: Coating of proteins were done in PBS at concentration of 10 μg/ml. Fibronectin served as a ligand at the same concentration. All buffers contained 2% BSA, 0.1% Tween-20.
Three protein constructs human Fc (control), dimeric human (h)Fc-Endostatin and hFc-VEGF were employed. […] Artificial endostatin dimer was generated by introducing a single mutation in amino acid position 7 of endostatin (changing glutamine to cysteine) in the recombinant Fc-endostatin. Upon digestion of this mutant protein by enterokinase, endostatin dimer is produced, linked by a disulfide bond (Kuo et al., loc. cit.).

fibronectin [2] = molecular target: T1, fibronectin; experiment: Biacore (SPR) equilibrium binding constants to fibronectin; details: fibronectin 0.78 nM-100 nM over immobilized protein; values only in FIG. 1C
Protocol: Fibronectin samples were prepared by serial dilution into 0.01 M Hepes, pH 7.4, 0.15 M NaCl, 0.05% Surfactant containing 1 mg/ml BSA in the range 0.78 nM-100 nM and flowed over control and derivatized surfaces for three minutes at a flow-rate of 60 μl/min. Dissociation phases were monitored for 5 minutes. Zero concentration blank buffer cycles were included as negative control samples. Sensor surfaces were regenerated using a 1 minute injection of 1 M ethanolamine, pH 8.5 following each interaction analysis cycle. Non-specific binding effects to sensor surface CM4 were not observed. Calculated ka, kd and KD are shown. Different curves correspond to different concentrations of fibronectin.
1.3 Surface Plasmon Resonance (SPR) binding assays. This analysis provides for a unique method for measuring equilibrium constants between two binding partners. It is able to evaluate the kinetics of an interaction by recording the rates of complex formation (ka) and dissociation (kd) followed by employing a software which determines the values of these two parameters. Equilibrium constant (KD) is obtained by calculating the ration of kd/ka Human VEGF (R&D), endostatin, endostatin dimer and human NC-1 (hNC-1) were diluted to 50 μg/ml in 10 mM Sodium Acetate, pH 5.5 and immobilized onto series S sensor chip(s) CM4 via a standard N-ethyl-N′-(dimethyl-aminopropyl)carbodiimide/N-hydroxysuccinimide (EDC/NHS) amine coupling procedures. Control surfaces were prepared similarly without protein derivatization and utilized as a reference surface for compound binding experiments.
Binding measurements were performed using a Biacore™ (GE Healthcare, Uppsala, Sweden) instrument which employs surface plasmon resonance to detect and monitor molecular interactions.
Data analysis was carried out using Biacore T100 evaluation software v1.1.1. Data were prepared by subtraction of reference surface data and blank buffer sample data, a procedure commonly referred to as ‘double referencing’ and fitted to a 1:1 langmuir binding model.
In order to measure equilibrium binding constants for the above proteins, a Biacore system was employed. […] Fc-endostatin imposes a dimeric structure on the two molecules of endostatin at the C-terminus of Fc dimer.

HUVECs [3] = experiment: Immunofluorescence, endothelial cell surface binding; type: cell-based, human
Protocol: HUVECs were incubated with Fc-endostatin and detected with Alexa 488 IgG or human NC-1 (hNC-1) trimer and detected by anti-His tag monoclonal antibody.
1.5 Immunocytochemistry. HUVECs were plated and grown on cover slips. […] The slips were incubated in the blocking buffer (2% BSA PBS) for 30 min. For hFc-endostatin or hFc groups, the slides were incubated with Alexa 488 antihuman IgG for imaging. For hNC-1 or IgG groups, the slides were incubated with mouse anti-His-tag monoclonal antibody, then probed by Alexa 488 anti-mouse IgG. Anti-fibronectin antibody (R&D) was used for secondary staining for all slides and probed by Alexa 594 anti-goat IgG and imaged by confocal-microscopy. DAPI counterstaining of nuclei is shown in blue.
2.3 Binding of oligomeric hFc-endostatin and hNC-1 to HUVECs. Immunoflourescence technique was employed to detect endothelial cell surface binding of oligomeric endostatin and NC-1.

HUVECs [4] = experiment: Endothelial cell migration assay (transwell, VEGF-induced); type: cell-based, human
Protocol: HUVECs were plated into 24-well inserts of transwell plate in duplication. The lower chamber was filled with serum free medium containing 100 ng/ml […] VEGF (rhVEGF) plus different concentrations of hNC-1. After incubation for 16 h at 37° C., the cells were fixed and stained. […] Endostatin monomer, dimer and NC-1 were used for comparison (c).
1.7 Endothelial cell migration assay. HUVECs were washed by serum free EBM medium twice, re-suspended at 5×10^4 cells/well in 0.6 ml of medium, were plated into 24-well inserts (Coring, 8 μm pore size) in duplicates. The lower chamber was filled with 0.6 ml of serum free EBM medium containing 100 ng/ml […] (rh)VEGF (R&D) After incubation for 16 h at 37° C., the cells were fixed by methanol and stained with eosin and hemotoxlin. Cells on the upper side of the transwell membrane were removed by cotton swab. Cells migrating to the lower side of membrane were counted.
2.4 hNC-1 inhibits endothelial cells migration. Endothelial cell migration is an important step in new blood vessel formation and tumor angiogenesis. To evaluate the effect of hNC-1 on endothelial cell migration, rhVEGF has been used to induce HUVECs migration in a transwell assay. The migration of cells has been monitored and quantified Cells migrating across the membrane were stained with blue-purple stain (FIG. 3B(a)) and counted.

[5] = test system: human melanoma cancer cells (A2058); experiment: A2058 human melanoma tumors in nude mice; type: in vivo
Protocol: 4-6 tumor-bearing nude mice in each group were subcutaneously (s.c.) treated with hNC-1 (100 μg/mouse once a day), clinical-grade endostatin (100 and 500 μg/mouse once a day) or PBS. Treatment was stopped prior to the development of necrosis. Sites of injection were away from tumors. Tumor sizes and the ratio of treated/control (T/C) is shown.
1.4 Animal and tumor models. All animal procedures were carried out in compliance with Children's Hospital Boston guidelines Protocols were approved by the Institutional Animal Care and Use Committee. Eight-week-old male (24-27 g) nude/nude mice (Massachusetts General Hospital, Boston, MA) were used. Mice were acclimated, caged in groups of five in a barrier care facility, and fed animal chow and water ad libitum. Animals were euthanized by CO2 inhalation. Human melanoma cell line A2058 was used for animal studies. A suspension of 2×10^6 tumor cells in 0.1 ml of PBS was injected subcutaneously (s.c.) into the dorsa of mice at the proximal midline. Mice were weighed and tumors were monitored twice a week in two diameters with digital calipers. Tumor volumes were determined using a^2×b×0.52 (where a is the shortest and b is the longest diameter). Tumors were allowed to grow to ˜100 mm^3 and mice were randomized. Treatment was by bolus s.c. injections. After experiments were completed, tumors and organs were excised and fixed in either 4% paraformaldehyde or were snap frozen. Four to six mice were treated with each group.
2.6 hNC-1 suppresses tumor growth in vivo. In order to compare anti-tumor activities of NC-1 and endostatin, nude mice bearing human melanoma cell line A2058 were employed. Two doses of clinical grade endostatin differing by 5-fold in concentration of protein (low and high doses) were used. […] It cannot be ruled out the possibility that injected NC-1 becomes degraded upon entering the circulation.

[6] = Stability in serum or cell culture media; type: in vitro ADME; details: longer periods of time, even at 4° C.
Description: The invention also relates to a method for producing the protein oligomer or peptide oligomer or fusion protein of the invention, comprising (a) culturing a host cell comprising a nucleic acid encoding the protein oligomer or peptide oligomer or fusion protein of the invention, preferably under serum-free conditions, (b) obtaining from the host cell of step (a) the protein oligomer or peptide oligomer or fusion protein, and, optionally, (c) storing the protein oligomer or peptide oligomer or fusion protein, preferably under serum-free conditions. […] Therefore, it is advantageous to produce and keep the protein oligomer or peptide oligomer of the invention under serum-free conditions.
The earliest condition media employed for endostatin isolation was continuously kept at 4° C. for a long period of time (at least a month) prior to final purification step. Presence of fetal calf serum in the media can cause degradation of NC-1. Confirmation of this hypothesis was established by another group in the inventor's laboratory a year later, employing the same mouse tumor cell line (Wen et al., loc. cit.). […] Consequently, the earlier observation of an endostatin size protein being the only product following HPLC purification, strongly supports the inventor's hypothesis that NC-1 was completely digested to an endostatin size molecule after prolonged incubation at 4° C. […]

solid tumors = details: cited from earlier work
[7] = test system: human umbilical vein endothelial cells (HUVECs); details: in vitro; cited from earlier work
rat aortic rings = details: in vitro; cited from earlier work
[8] = test system: chicken chorioallantoic membrane; details: CAM assay; cited from earlier work

T1 sequence (P02751 32-2477): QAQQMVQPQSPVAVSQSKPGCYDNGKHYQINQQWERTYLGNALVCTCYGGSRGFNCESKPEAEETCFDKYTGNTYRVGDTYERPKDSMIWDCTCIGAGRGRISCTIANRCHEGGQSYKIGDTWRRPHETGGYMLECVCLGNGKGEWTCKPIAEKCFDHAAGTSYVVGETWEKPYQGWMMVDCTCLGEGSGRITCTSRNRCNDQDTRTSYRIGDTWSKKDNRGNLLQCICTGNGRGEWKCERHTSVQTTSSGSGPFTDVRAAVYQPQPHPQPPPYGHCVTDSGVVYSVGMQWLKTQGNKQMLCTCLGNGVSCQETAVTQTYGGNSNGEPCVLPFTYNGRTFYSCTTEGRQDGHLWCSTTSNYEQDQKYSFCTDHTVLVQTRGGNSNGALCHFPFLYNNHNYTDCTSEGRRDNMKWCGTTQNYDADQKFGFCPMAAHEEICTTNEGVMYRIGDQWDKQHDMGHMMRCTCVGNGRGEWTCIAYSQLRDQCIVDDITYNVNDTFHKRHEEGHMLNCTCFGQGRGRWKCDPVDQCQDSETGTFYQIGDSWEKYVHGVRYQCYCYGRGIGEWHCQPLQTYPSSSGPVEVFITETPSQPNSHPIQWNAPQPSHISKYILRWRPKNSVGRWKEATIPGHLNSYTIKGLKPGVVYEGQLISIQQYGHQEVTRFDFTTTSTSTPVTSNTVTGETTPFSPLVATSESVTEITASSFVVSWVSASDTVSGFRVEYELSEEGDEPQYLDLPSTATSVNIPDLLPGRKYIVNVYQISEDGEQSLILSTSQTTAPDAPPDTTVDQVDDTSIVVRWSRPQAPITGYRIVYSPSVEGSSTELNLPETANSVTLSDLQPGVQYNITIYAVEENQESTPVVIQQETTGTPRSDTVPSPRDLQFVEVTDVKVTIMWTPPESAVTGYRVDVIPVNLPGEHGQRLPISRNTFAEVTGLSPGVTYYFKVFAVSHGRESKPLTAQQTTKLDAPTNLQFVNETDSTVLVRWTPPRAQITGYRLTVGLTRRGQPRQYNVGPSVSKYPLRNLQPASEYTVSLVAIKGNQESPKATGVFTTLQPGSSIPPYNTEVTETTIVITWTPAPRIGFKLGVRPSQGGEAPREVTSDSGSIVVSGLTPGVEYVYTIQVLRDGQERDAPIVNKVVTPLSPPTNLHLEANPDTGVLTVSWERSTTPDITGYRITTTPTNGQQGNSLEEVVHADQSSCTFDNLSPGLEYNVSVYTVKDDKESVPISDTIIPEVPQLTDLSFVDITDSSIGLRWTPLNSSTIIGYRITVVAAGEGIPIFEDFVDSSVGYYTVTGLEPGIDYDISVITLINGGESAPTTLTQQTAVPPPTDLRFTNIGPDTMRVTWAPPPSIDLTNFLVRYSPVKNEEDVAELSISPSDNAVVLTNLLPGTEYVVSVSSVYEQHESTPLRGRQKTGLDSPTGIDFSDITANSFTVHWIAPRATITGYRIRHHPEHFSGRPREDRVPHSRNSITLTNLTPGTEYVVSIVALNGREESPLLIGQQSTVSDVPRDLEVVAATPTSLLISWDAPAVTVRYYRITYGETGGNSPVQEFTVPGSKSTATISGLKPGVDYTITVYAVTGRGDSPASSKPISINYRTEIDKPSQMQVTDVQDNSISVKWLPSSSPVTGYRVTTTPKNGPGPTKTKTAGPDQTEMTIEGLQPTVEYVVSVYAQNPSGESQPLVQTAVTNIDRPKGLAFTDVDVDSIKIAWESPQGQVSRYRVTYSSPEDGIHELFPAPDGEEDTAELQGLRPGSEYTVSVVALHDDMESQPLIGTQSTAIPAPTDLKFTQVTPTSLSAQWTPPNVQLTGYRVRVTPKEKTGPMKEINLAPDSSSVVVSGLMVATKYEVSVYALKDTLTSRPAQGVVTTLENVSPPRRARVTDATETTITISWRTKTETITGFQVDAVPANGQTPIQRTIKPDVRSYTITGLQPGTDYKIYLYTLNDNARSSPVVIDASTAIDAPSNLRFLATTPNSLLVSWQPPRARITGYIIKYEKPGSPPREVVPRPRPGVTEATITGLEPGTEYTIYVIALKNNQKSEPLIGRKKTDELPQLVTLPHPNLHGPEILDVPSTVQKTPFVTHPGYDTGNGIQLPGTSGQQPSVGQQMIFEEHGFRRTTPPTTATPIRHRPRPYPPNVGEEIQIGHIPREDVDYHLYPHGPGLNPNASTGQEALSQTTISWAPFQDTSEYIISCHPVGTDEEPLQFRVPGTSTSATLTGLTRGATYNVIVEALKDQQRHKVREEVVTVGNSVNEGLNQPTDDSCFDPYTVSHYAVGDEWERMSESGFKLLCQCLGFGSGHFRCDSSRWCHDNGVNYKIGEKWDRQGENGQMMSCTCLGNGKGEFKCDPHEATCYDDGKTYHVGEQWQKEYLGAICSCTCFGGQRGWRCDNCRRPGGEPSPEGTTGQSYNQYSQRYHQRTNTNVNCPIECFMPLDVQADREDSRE

B1: hNC-1: naturally occurring trimeric NC-1 domain of human collagen 18: association domain, hinge region and endostatin domain (protein)
chain: SGVRLWATRQAMLGQVHEVPEGWLIFVAEQEELYVRVQNGFRKVQLEARTPLPRGTDNEVAALQPPVVQLHDSNPYPRREHPHPTARPWRADDILASPPRLPEPQPYPGAPHHSSYVHLRPARPTSPPAHSHRDFQPVLHLVALNSPLSGGMRGIRGADFQCFQQARAVGLAGTFRAFLSSRLQDLYSIVRRADRAAVPIVNLKDELLFPSWEALFSGSEGPLKPGARIFSFDGKDVLRHPTWPQKSVWHGSDPNGRRLTESYCETWRTEAPSATGQASSLLGGRLLGQSAASCHHAYIVLCIENSFMTASK
modifications: left off: small tags and cut ends
notes: naturally occurring trimeric NC-1 domain of human collagen 18: association domain, hinge region and endostatin domain
Fibronectin [1]
  binding to fibronectin (Elisa): bound fibronectin
Fibronectin [2]
  equilibrium binding constant to fibronectin (Biacore): High affinity constants
HUVECs [3]; cells cultured only for 24 hours
  binding to HUVECs: poor binding
HUVECs [3]; incubation time prolonged to 72 hours
  binding to HUVECs: significant binding
HUVECs [4]
  anti-migratory potency among endostatin monomer, dimer and NC-1: most potent anti-migratory agent
HUVECs [4]; 100 ng/ml rhVEGF, 16 h
  VEGF-induced endothelial cell migration: inhibited VEGF-induced endothelial cell migration
HUVECs [4]; 100 and 200 ng/ml of hNC-1
  endothelial cell migration: less migration
HUVECs [4]; different concentrations of hNC-1
  dose effect on endothelial cell migration: U-shaped curve
[5]; end of experiment, s.c. once a day, hNC-1 100 μg/mouse, endostatin 100 and 500 μg/mouse
  inhibition of tumor growth: 67%
[5]; low dose of NC-1 vs 5-fold higher dose of endostatin
  anti-tumor activity compared with endostatin: anti-tumor activity similar to high dose of endostatin
[6]
  stability in serum or cell culture media: susceptible to degradation

B2: Endostar: recombinant human endostatin from Escherichia coli with an additional nine-amino acid sequence forming a his-tag (protein, UniProt P39060 1572-1754, looked up)
Endostatin: HSHRDFQPVLHLVALNSPLSGGMRGIRGADFQCFQQARAVGLAGTFRAFLSSRLQDLYSIVRRADRAAVPIVNLKDELLFPSWEALFSGSEGPLKPGARIFSFDGKDVLRHPTWPQKSVWHGSDPNGRRLTESYCETWRTEAPSATGQASSLLGGRLLGQSAASCHHAYIVLCIENSFMTASK
modifications: Endostatin nine-residue his-tag
Solid tumors; 7.5 mg/m^2/day i.v. more than 7 days, with chemotherapy
  Median time to tumor progression: 3.0 months
Solid tumors; human, in vivo
  toxicity combined with chemotherapy: tolerable
  treatment related death: No treatment related death
Solid tumors; of 42 patients
  patients remaining stable: twenty-one
  patients with progressive disease: nineteen
Solid tumors; with chemotherapy
  Median overall survival: 30.0 months
  complete response: No complete response
  one year survival rate: 81.0%
  patients with partial response: Two of 42
[7]
  VEGF-stimulated proliferation, migration, and tube formation of HUVECs: suppressed
Rat aortic rings
  microvessel sprouting from rat aortic rings: blocked microvessel sprouting
[8]
  formation of new capillaries from pre-existing vessels: inhibit the formation of new capillaries
